According to patent US8283439B2, “Recombinant fragments and synthetic peptides of 17-kDa polypeptide useful in detecting Bartonella henselae” (Medical Diagnostic Laboratories L.L.C., priority 2008, dated 2012):

Columns and labels:
[1] = test system: IgM in IFA-positive patient sera; experiment: IgM Capture ELISA with biotinylated recombinant 17-kDa full-length protein; assay type: binding, human; parameters: AUC (ROC analysis of the calibrated slopes): unit not given beside the values; conditions: IFA-positive (n=13) and IFA-negative (n=34) patient samples
Procedure: For the IgM Capture assay, purified recombinant 17-kDa full-length protein (1 mg/ml) was biotinylated using the Sulfo-NHS Biotin kit (Pierce, Rockford Ill.). MaxiSorp 96 well plates (Nunc, Rochester N.Y.) were coated with anti-human IgM (KPL, Gaithersburg, Md.) at a concentration of 1 μg/ml in coating buffer (0.015 M Na2CO3, 0.035 M NaHCO3 [pH 9.6]) and incubated overnight at 4° C. The plates were washed with PBS-Tween 20 and blocked with 1% bovine serum albumin (BSA) at room temperature. IgM positive and negative patient sera were used. The sera were diluted 1:100 in 1% BSA with 0.05% Tween 20, prior to being run in duplicate, and reacted with the plates for 1 hr at room temperature.
Biotinylated recombinant 17-kDa protein was added to the plates at 1 μg/ml in dilution buffer and incubated at room temperature for 1 h with shaking. Streptavidin-HRP (Southern Biotech, Birmingham Ala.) was used to detect the plates followed by development with 3,3′,5,5′-Tetramethylbenzidine (TMB) (Moss, Pasadena, Md.) for 30 minutes. The reaction was stopped with 2M HCl and the absorbance at 450 nm was recorded after a period of 5-30 minutes.
Receiver operating characteristic (ROC) curve analysis was used to evaluate the performance of the IgM Capture method. ROC plots can be used to compare all tests, even when tests have quite different cutoff values. The study of area under the curve (AUC), which evaluates the probabilities of (1-Specificity) and Sensitivity, is an important statistical feature of such curves (i.e., for samples with Sensitivity=Specificity=100%, AUC would be 1.0).

[2] = test system: antibodies against Bartonella henselae in IFA sero-positive patient sera (IgG); experiment: IgG ELISA with recombinant 17-kDa protein or Fragment 3 as coating antigen; assay type: binding, human
Procedure: In the ELISA assay, purified Fragment 3 protein was diluted in coating buffer to a final concentration of 250 ng/ml. Antigen was adhered to 96-well plate by applying 100 μl this solution per well and incubated at 4° C. for 18 hours. Uncoated antigen was removed by washing the plate three times with PBST wash buffer. After washing, post-coating was done with 300 μl blocking reagent General Blocker BB1 in each well for 1 hour at 22° C. Primary polyclonal antibody from 100 μl serum in 1:100 sample dilution buffer each well was allowed to react with coated antigen for 1 hour at 22° C. After five wash steps with PBST wash buffer, each well was incubated with […] peroxidase conjugated goat anti-human IgG (KPL, 1:20,000 from 1 mg/ml stock in sample dilute buffer) for 30 minutes at 22° C. The excess amount of secondary antibody was also removed by five wash steps with PBST wash buffer. The reaction were visualized by adding 100 μl substrate 3,3′5,5′-Tetramethylbenzidine solution and incubated at 22° C. for 15 minutes. The reaction was terminated by adding 100 μl 0.5 M H2SO4 per well before taking OD450nm measurement. Receiver operating characteristic curve (ROC) analysis was calculated with associated 95% confidence interval using a binomial distribution with the MedCalc program.
In this series of studies, a panel containing 12 IFA positive serum samples and 6 IFA negative serum samples was evaluated by ELISA using the respective antigen as the coating antigen. FIG. 15 presents the results of this ELISA analysis. […] Neither antigen bound antibody in sample #3508.
To further characterize the comparative abilities of recombinant Fragment 3 and the full length protein to bind antibodies to Bartonella henselae, a broader panel of 47 serum samples (27 IFA positive serum samples and 20 IFA negative serum samples) was analyzed by ELISA. The raw data was analyzed with ROC curve comparison in statistic software MedCalc.
A panel of 47 human sera was used in an IgG ELISA to evaluate the sensitivity and specificity for Fragment 3 mutants. The raw data was analyzed by interactive dot diagram assay (FIGS. 31 and 32).
Purified protein was diluted in coating buffer to a final concentration 250 ng/ml. Antigen was adhered to 96-well plate by applying 100 μl above prepared solution per well and incubate at 4° C. for 18 hours. We removed uncoated antigen by washing plate three times with PBST wash buffer. After washing, post-coating was done with 300 μl blocking reagent General Blocker BB1 each well for 1 hour at 22° C. Then primary polyclonal antibody from 100 μl serum in 1:100 sample dilution buffer each well was allowed to react with coated antigen for 1 hour at 22° C. After five times washing with PBST wash buffer, we incubated each well with 100 μl peroxidase conjugated goat anti-human IgG (KPL, 1:20,000 from 1 mg/ml stock in sample dilute buffer) for 30 minutes at 22° C. The excess amount of secondary antibody was also removed by five times washing with PBST wash buffer. The reaction were visualized by adding 100 μl substrate 3,3′5,5′-Tetramethylbenzidine Solution and incubated at 22° C. for 15 minutes. In the end, we terminated reaction with 100 μl 0.5 M H2SO4 per well before taking OD450nm measurement. Receiver operating characteristic curve (ROC) analysis was calculated with associated 95% confidence interval using a binomial distribution with MedCalc program.

B1: 17-kDa Full Length: recombinant full-length 17-kDa (virB5) protein of Bartonella henselae strain Houston-1, aa 1-148; biotinylated in the IgM assay (protein, listed as Bartonella henselae)
chain: MKKYSLVTLLSLFCISHAKAQTATLTDEYYKKALENTQKLDVAKSQTAESIYESATQTANKIKDINNQLANLKADTKTKPEQLQALQIELTLLQAQLQADTLKIQSLAMIQAKDTKTKEELREEQTQKKHEDLQKQLKEKLEKSDVQL
modifications: biotinylated in IgM assay
notes: recombinant full-length 17-kDa (virB5) protein of Bartonella henselae strain Houston-1, aa 1-148; biotinylated in the IgM assay
[1]
  AUC (ROC analysis of the calibrated slopes): 0.998
  sensitivity: 100%
  specificity: 97.1%
[2]; IgG ELISA, panel of 47 serum samples (27 IFA positive, 20 IFA negative), MedCalc ROC
  area under ROC curve (AUC): 0.853
[2]; panel of 12 IFA positive and 6 IFA negative serum samples
  reaction with IFA negative serum samples: Neither antigen reacted with any of the IFA negative serum samples
